Where two headings read alike, the source gives them in different places.
Legend:
CceR-6xHis [1] = biological target: T1, CceR-6xHis (Rhodobacter sphaeroides 2.4.1, UniProt Q3J5X3 1-345); assay: EMSA
T1 sequence: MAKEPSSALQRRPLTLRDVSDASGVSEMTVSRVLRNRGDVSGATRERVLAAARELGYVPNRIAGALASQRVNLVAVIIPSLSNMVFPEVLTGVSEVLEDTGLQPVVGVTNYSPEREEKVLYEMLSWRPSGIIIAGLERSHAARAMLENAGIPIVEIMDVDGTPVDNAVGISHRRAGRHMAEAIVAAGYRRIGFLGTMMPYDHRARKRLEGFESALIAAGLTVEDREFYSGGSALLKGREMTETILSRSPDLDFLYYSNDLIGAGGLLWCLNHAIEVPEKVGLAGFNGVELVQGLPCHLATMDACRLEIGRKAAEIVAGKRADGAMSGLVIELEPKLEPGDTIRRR

CceR-6xHis [2] = biological target: T1, CceR-6xHis; assay: EMSA; remark: listed apart in the source

B1: zwf promoter fragment (dsDNA)
DNA 1: CGGGCGTCTTTCCACATTTACCCCGGCGGGGGGCGCGCTAGACTCGGGCCACGGCAGCCGCTAGAACGGCCGTTAGCGCTAACAGGCGAGGCAGC
DNA 2: GCTGCCTCGCCTGTTAGCGCTAACGGCCGTTCTAGCGGCTGCCGTGGCCCGAGTCTAGCGCGCCCCCCGCCGGGGTAAATGTGGAAAGACGCCCG
Q: Does B1 bind (CceR-6xHis [1])?
A: binds

B2: bchF promoter fragment (dsDNA)
DNA 1: TCATCCAAGGAGGAACGCATGTCAAAGAAAATTGACACCTCAGGCAGCGGAGGCAGCCCATCCCCCGCTGAACTCACACTTAATCCTTGGATTTACGACAGAGTGTCGCAGCTTC
DNA 2: GAAGCTGCGACACTCTGTCGTAAATCCAAGGATTAAGTGTGAGTTCAGCGGGGGATGGGCTGCCTCCGCTGCCTGAGGTGTCAATTTTCTTTGACATGCGTTCCTCCTTGGATGA
Q: Does B2 bind (CceR-6xHis [2])?
A: no binding

Reference: paper PMC4323418
